In US8846363B2, “Compositions of and methods of using sulfatases from Flavobacterium heparinum” (priority 2007, dated 2014):

B1: Flavobacterium heparinum N-sulfamidase (ORF C), recombinant, NH2-terminal truncation lacking signal sequence, SEQ ID NO: 4 (Pedobacter heparinus DSM 2366) (protein)
chain: SCTSPEKKTDRPNILMIMSDNQSWNHVGSYGDQTVRTPNMDRIAKEGVRFTNAFCSSPSCTPARAGMLTGQDIWRLEDGGNLWGVLPVKYKVYPDLLEEAGYAIGFQGKGWGPGSFEANKRPRNPAGNEFKSFGAFLKDKKEGPWCYWISSHEPHRPYVEGSGEKAGIDPNKVKVPAYLPDHISIRKDIADYYAAVETFDRELGEALDQLKASGELDNTVIVVCSDNGWQMPRGLANLYDFGTHVPLIISWPGKFKQDVVADNLVTLNDLAPTFLQLGKVPVPADMTGKSLLPIVEAGKKDEKPRDYVVLGRERHAFVRRHGLGYPGRAIRTKDYLYIKNYEPNRWPAGDPPFYGDIDPYMFNWPGETKYYLIEHKDDPKVKSFFELGMGKRPAEELFDINKDPDELHNLAALPEYQKIKQELVAKLRNYLVATKDPRETNGNIQIWDTAAYFSEIDKTPKPSKEMQKRFKLDSSYNYLK
notes: E. coli BL21(DE3), N-terminal 6xHis removed by thrombin
B2: Flavobacterium heparinum 6-O-sulfatase (ORF B), recombinant, NH2-terminal truncation lacking signal sequence, SEQ ID NO: 2 (Pedobacter heparinus DSM 2366) (protein)
chain: TLMSCQQPKPAESAKRPNIVFIMTDDHTIQAISAYGSKLVKTPNLDRIANEGMLFNNCFVTNAVCGPSRATILTGKYSHLNGLTDNSKVFDSTQVIYPQLLKKAGYQTAMIGKWHLGSTPMGFDYYSILPNQGQYYQPEFIENGHLVKEKGYVTDLITDKAIGFLEKRDHDKPFLMIYQHKAPHRNWLPAPRHLGMFDDTVFPEPANLLDDFKGRGRAAKEQLMNISTDMWPAWDLKMLSTAQLDSMAKLPVSPKFKDAKGDDYQQANDPSLDKARFFEVYNRMTDAEKVQWRKVYDKRVAEFKRLNPKGADLVRWKYQQYMRDYLACVVSVDENVGRLMDYLKKIGELDNTIIVYTSDQGFYLGEHGYFDKRFMYDESFRTPLMVRYPPSVKAGSVSNAFAMNLDFAPTLLDYAGVKIPADMQGLSLRPVLDNAGKSPENWRKAVYYHYYEFPSWHMVKRHYGIRTERYKLIHFYNDIDEWELYDMQKDPHEMQNLYNDKAYEPIIKDLKVQMKKLQVQYKDTNPTEAL
notes: as for B1

Tests used:
[1] = Effect of pH on N-sulfamidase activity by capillary electrophoresis; assay type: biochemical
Procedure: (§1) Initial assessment of substrate specificity and pH optima was made using a capillary electrophoresis-based assay for the detection of desulfated products. Preliminary enzyme activity was measured against the following series of fluorescently derivatized, monosulfated gluco and galactopyranosides: 4-MU-GlcNAc,6S, 4-MU-GlcNS, 4-MU-GalNAc,6S and 4-MU-Gal6S. Standard reactions included 1 mM substrate, 1-10 μM enzyme, 50 mM sodium acetate, pH 5.5-6.5 and 5 mM CaCl2 in a 20 μL reaction volume. For pilot experiments, exhaustive reactions involved overnight incubations at 30° C. Enzyme was inactivated by heat denaturation at 95° C. for 10 minutes, followed by a 10-fold dilution into water. Reaction products were resolved by capillary electrophoresis using a 25 cm long, 75 μm (i.d.) fused silica capillary (Agilent Technologies, Palo Alto, Calif.). Electrophoresis was carried out under negative polarity by applying a voltage of −15 kV (˜1.2 W) for 10 minutes. Substrate desulfation was measured as a percentage of substrate depletion relative to a minus enzyme control as monitored by the loss of UV absorbance at 315 nm detected at approximately 4 minutes. A standard capillary electrophoresis buffer included 50 mM Tris and 10 μM dextran sulfate (average MW of 10,000 Da) adjusted to pH 2.0 with phosphoric acid. At this pH, saccharide migration occurred on the basis of charge without the influence of electro-osmotic flow.
The effect of pH was likewise measured by capillary electrophoresis using the following three sets of buffers with overlapping pH ranging from 4.5 to 8.0:50 mM sodium citrate at 4.5, 5.0, and 5.5; 50 mM MES at 5.5, 6.0, 6.5 and 7.0; and 50 mM MOPS at 6.5, 7.0, 7.5, and 8.0. Reactions included 1 μM enzyme, 2 mM 4-MU-GlcNAc,6S (for 6-O-sulfatase) or 4-MU-GlcNS (for N-sulfamidase), 50 mM buffer and 5 mM CaCl2 in a 20 μL reaction volume. Assay was initiated by the addition of 2 μl of a 10× enzyme stock to 18 μL of preheated reaction mixture. […]

[2] = substrate: Cc1cc(=O)oc2cc(O[C@H]3O[C@H](CO)[C@@H](O)[C@H](O)[C@H]3NS(=O)(=O)O)ccc12; experiment: Steady-state kinetics, coupled N-sulfamidase/α-glucosidase fluorimetric assay with 4-MU-GlcNS; assay type: biochemical, Flavobacterium heparinum (Pedobacter heparinus)
Excerpt: Recombinant protein expression in the E. coli strain BL21(DE3) and one-step affinity purification by nickel chelation chromatography were as described for 2-O-sulfatase (Myette et al., 2003 J Biol Chem 278, 12157-12166). The prediction of NH2-terminal signal sequences and putative cleavage sites for the two respective proteins was made by the Von Heijne computational method (Nielsen et al., 1997 Protein Eng 10, 1-6.). Engineering and expression of these truncated proteins (minus signal sequences) were as described above for the full-length genes with the exception of substituting the 5′ primers which were used in the original PCR amplification step. These internal primers included 5′ TCTAGACATATGTCTTGCCAGCAGCCTAAAC 3′ (for ORF B; SEQ ID NO: 15) and 5′ TCTAGACATATGTCCTGCACTTCGCCGGAA 3′ (for ORF C; SEQ ID NO: 16), with the Nde 1 site underlined. As such, the ORF B gene sequence begins at Met 18 (FIG. 1). Likewise, the ORF C gene sequence begins at Ser 21 (FIG. 2). Removal of the 6×His tag was achieved by site-specific protease cleavage using the thrombin cleavage capture kit (Novagen, San Diego, Calif.). Proteolysis conditions were generally as described for other recombinantly expressed flavobacterial heparin degrading enzymes. […]
Indirect measurement of enzyme activity was also made using a fluorimetrically-based plate assay in which the prerequisite desulfation of the appropriate glucopyranoside 1→4 methlybelliferone substrate by either the 6-O-sulfatase or N-sulfamidase was coupled to the glucosidase-mediated hydrolysis of the stereo-specific 1→4 glycosidic linkage between the pyranose ring and the adjoining fluorophore. Release of the free fluorophore (4-MU) was monitored spectroscopically as described above for the arylsulfatase assay using 4-MU sulfate. […] Reaction conditions were optimized to satisfy three related criteria: 1) linear readout of fluorescent signal which is directly proportional to sulfatase activity; 2) quantitative release of 4-MU by glucosidase activity under every biochemical condition examined and; 3) negligible fluorescent quenching of the free chromophore.
Coupled N-sulfamidase assay was generally described for the 6-O-sulfatase, but with the following modifications: 4-MU-GlcNS as substrate, 50 mM sodium acetate at pH 6.0 (instead of 5.5) and 1 μM enzyme. […] The obvious difference in enzyme efficacies between α-glucosidase versus β-glucosidase is reflected in the substantially longer incubation times required for the α-glucosidase to quantitatively hydrolyze the glycosidic α1→4 linkage between the fluorophore and the desulfated glucosamine. […]

[3] = Effect of pH on 6-O-sulfatase activity by capillary electrophoresis; assay type: biochemical
Procedure: as §1, with “Electrophoresis was carried out under negative polarity by applying a voltage of −15 kV (˜1.2 W) for 10 minutes.” left out, “A standard capillary electrophoresis buffer included 50 mM Tris and 10 μM dextran sulfate (average MW of 10,000 Da) adjusted to pH 2.0 with phosphoric acid. At this pH, saccharide migration occurred on the basis of charge without the influence of electro-osmotic flow.” left out
The effect of pH was likewise measured by capillary electrophoresis using the following three sets of buffers with overlapping pH ranging from 4.5 to 8.0:50 mM sodium citrate at 4.5, 5.0, and 5.5; 50 mM MES at 5.5, 6.0, 6.5 and 7.0; and 50 mM MOPS at 6.5, 7.0, 7.5, and 8.0. […]

[4] = other: Addition: 0.5 mM Ca^+2, pH 6.0, 37.0 °C
[5] = other: Addition: 5 mM Ca^+2, pH 6.0, 37.0 °C

Molecule | activity below pH 4.5 ([1]; below pH 4.5) | pH range of activity compared with the other enzyme ([1]; compared with 6-O-sulfatase) | activity in acetate buffer compared to sulfonate buffers (MES, MOPS) ([1]; same pH range) | Km [2, 4] [µM] | kcat [2, 4] [s⁻¹] | Km [2, 5] [µM] | kcat [2, 5] [s⁻¹] | activity below pH 4.5 ([3]; below pH 4.5) | activity in acetate buffer compared to sulfonate buffers (MES, MOPS) ([3]; same pH range)
B1 | Neither enzyme was active | active over a broader range, especially above pH 7.0 | higher activity in acetate buffer | 45 | 0.085 | 178 | 0.365 | – | –
B2 | – | – | – | – | – | – | – | Neither enzyme was active | higher activity in acetate buffer
